US6548634B1, “Synthetic peptides having FGF receptor affinity” (priority 1998, dated 2003)

Tests used:
Swiss 3T3 cells [1] = test: Swiss 3T3 proliferation, WST-1 long term assay; format: cell-based; details: WST-1, 4 successive days, 15 U/ml heparin, FIG. 4
Protocol: Swiss 3T3 cells were plated on gelatin-coated 96-well microtiter plates in quiescent media containing the indicated concentrations of bFGF or C19-jun protein and 15 U/ml heparin and cell number estimated on each of 4 successive days by the WST-1 assay as per manufacturers instructions (Cell proliferation Reagent WST-1, no. 1644807, Boehringer-Mannheim).

FGFR = FGFR autophosphorylation in Swiss 3T3 cells (anti-FGFR IP, anti-phosphotyrosine blot); format: cell-based; details: 1.0 nM bFGF or 50 nM C19jun, 15 U/ml heparin, 15 minutes
Protocol: (§1) To determine whether C19jun could activate FGF receptors in vivo, Swiss 3T3 cells were treated with basic FGF (bFGF) or purified C19jun protein. Cell extracts were then immunoprecipitated with anti-FGFR antibodies, analyzed by SDS-PAGE and immunoblotted with anti-phosphotyrosine antibodies. Extracts from bFGF and C19jun-stimulated 293 cells expressing FGFR1c were also immunoblotted with phospho-MAP Kinase-specific antibodies.
(§2) Swiss 3T3 fibroblasts, or 293 cells expressing full-length FGFRIc were incubated in quiescing media (DMEM, 1 μg/ml insulin, 5 μg/ml transferrin, 0.5 mg/ml BSA) for 24-48 hrs, and then stimulated with 1.0 nM bFGF or 50 nM refolded C19jun protein in the presence of 15 U/ml heparin for 15 minutes at 37° C. The cells were lysed and aliquots of lysate containing equal amounts of total protein were either analyzed directly by immunoblotting with phospho-MAPKspecific antibodies and anti-total MAPK antisera (New England Biolabs) or immunoprecipitated with anti-FGFR antisera and immunoblotted with anti-phosphotyrosine antibodies (Upstate Biotechnology, Inc.). Both bFGF and C19jun induced FGFR autophosphorylation and MAP kinase phosphorylation.

Swiss 3T3 cells [2] = test: Swiss 3T3 mitogenesis with soluble receptor ECD competitors; format: cell-based
Protocol: To further examine the specificity of C19jun for FGFR, Swiss 3T3 cells were stimulated with C19jun in the presence of protein representing the soluble extracellular binding domain (ECD) of various receptors used as binding competitors. The mitogenic activity of C19jun was abolished by pre-incubation of the fusion protein with excess FGFR1c ECD, but was unaffected by incubation with identical concentrations of the closely related PDGF receptor ECD or with erythropoietin receptor ECD. […] Similar results were observed when phosphorylation of MAPK was analyzed in these cells.
(§3) Protein representing the linker segments and c-jun leucine zipper without the C19 sequence (FIG. 2) was expressed, purified, and characterized as for C19jun. C19 peptide with an intrapeptide disulfide bond was synthesized, purified by HPLC, and characterized by mass spectroscopy. C19junΔhep protein was prepared by changing human c-jun residues Arg276, Arg279, Lys285, and Lys288 in the leucine zipper domain to glutamines. Expression, purification, and characterization was as for C19jun. […] The extracellular ligand-binding domain of human FGFR Ic (residues 1-377) and human erythropoietin receptor (residues 1-250) were fused to the Fc region of human IgG1, expressed in baculovirus and purified by protein A affinity chromatography. Activity of the fusion proteins was confirmed by binding of [^125I]-labeled ligands. PDGF receptor Fc fusion protein was from R&D Systems.

[3] = system: 293 cells expressing full-length FGFR1c; test: MAP kinase phosphorylation in 293 cells expressing FGFR1c; format: cell-based; details: 1.0 nM bFGF or 50 nM C19jun, 15 U/ml heparin, 15 minutes
Protocol: as §1, §2

[4] = system: L6 myoblast cell lines stably expressing FGFR1c; test: c-fos mRNA expression in L6 myoblasts stably expressing FGFR1c; format: cell-based
PC12 cells = test: PC12 cell neurite outgrowth; format: cell-based
Protocol: 1×10^4 PC12 cells per well were plated on mouse laminin-and-poly-L-lysine-coated 24-well plates in 1 ml of media (RPMI 1640, 10% horse serum, 5% FCS, antibiotics) and stimulated with 1 nM bFGF or 2 nM C19-jun protein in the presence of 15 U/ml heparin for 4 days.

Swiss 3T3 fibroblasts = test: BrdU incorporation (mitogenesis) in Swiss 3T3 fibroblasts; format: cell-based; details: Swiss 3T3, presence and absence of heparin
Protocol: 6×Histidine-tagged Clone 19-jun protein (FIG. 1A) was expressed in bacteria and purified by metal affinity chromatography as described in Example 5. Assay of BrdU incorporation, a measure of entry of cells into S-phase and therefore of mitogenesis, was performed according to manufacturers instructions (Cell proliferation ELISA, BrdU, Cat. No. 1-647-229, Boehringer-Mannheim, Indianapolis, Ind.). Briefly, 1×10^4 Swiss 3T3 cells per well were plated on gelatin-coated 96-well microtiter plates in complete media (DMEM, 10% FCS, antibiotics), incubated 24 hours, and the media changed to quiescent media for an addition 24 hours (DMEM containing 0.5 mg/ml bovine serum albumin, 1 μg/ml insulin, 5 μg/ml transferrin, antibiotics). The cells were then treated with bFGF or Clone 19-jun protein at the indicated concentrations in the presence of 15 U/ml heparin. 18 hours later, BrdU was added, the cells incubated an additional 4 hours, and assayed as described. […] Heparin alone had no effect, nor did a control protein expressed and purified in the same manner in which the C19 sequence was deleted.

[5] = Binding to heparin agarose beads
control L6 cells = test: c-fos mRNA expression in control L6 cells that do not express FGFR; format: cell-based
FGFR1c ECD = biological target: T1, FGFR1c ECD (Homo sapiens, UniProt P11362); test: BIAcore real-time kinetic analysis on immobilized FGFR1c ECD; format: binding; details: in vitro, absence of heparin
T1 construct: human FGFR Ic (residues 1-377); made in house
T1 sequence (P11362 22-377): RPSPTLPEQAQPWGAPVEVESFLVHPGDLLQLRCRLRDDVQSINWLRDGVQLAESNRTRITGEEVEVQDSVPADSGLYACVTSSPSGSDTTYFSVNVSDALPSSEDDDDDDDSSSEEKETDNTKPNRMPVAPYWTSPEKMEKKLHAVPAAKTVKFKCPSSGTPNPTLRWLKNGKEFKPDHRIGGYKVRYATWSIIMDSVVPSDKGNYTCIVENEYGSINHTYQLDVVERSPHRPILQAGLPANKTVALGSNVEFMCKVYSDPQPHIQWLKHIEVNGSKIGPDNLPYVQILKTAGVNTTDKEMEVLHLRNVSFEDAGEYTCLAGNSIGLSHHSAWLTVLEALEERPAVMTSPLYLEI
Protocol: Apparent affinities for immobilized FGFR1c ECD were determined using BIAcore real-time kinetic analysis in the absence of heparin.
as §3, with “Activity of the fusion proteins was confirmed by binding of [^125I]-labeled ligands.” left out

human endothelial cells = test: Proliferation of human endothelial cells; format: cell-based
[6] = Swiss 3T3, identical concentration

B1: C19jun: C19 sequence fused via flexible linker to human c-jun leucine zipper (residues 276-314) flanked by cysteines, polyhistidine tag; SEQ ID NO:41 (protein)
chain: MAESGDDYCVLVFTDSAWTKICDWSHFRNGPGGGSGGGSGGGSGGGSGGGSRCGGRIARLEEKVKTLKAQNSELASTANMLREQVAQLKQKVMNHGGCGGSGGHHHHHH
modifications: SyArtificial Sequence
Swiss 3T3 cells [1]
  Swiss 3T3 proliferation in long term assay: equal or greater extent than 1 nM bFGF
Swiss 3T3 cells [1]; listed as C19-jun
  Swiss 3T3 proliferation in long term assay: as well or better than bFGF
FGFR
  FGFR autophosphorylation: induced
Swiss 3T3 cells [2]; Swiss 3T3
  mitogenic activity after pre-incubation with excess FGFR1c ECD: abolished
Swiss 3T3 cells [2]; [6]
  mitogenic activity after incubation with PDGF receptor ECD: unaffected
  mitogenic activity after incubation with erythropoietin receptor ECD: unaffected
[3]
  MAP kinase phosphorylation: induced
[4]
  c-fos mRNA expression in FGFR-expressing L6 cells: stimulated c-fos mRNA expression
PC12 cells
  heparin dependence of morphogenic activity on PC12 cells: required for the morphogenic activity
PC12 cells; 1 nM bFGF or 2 nM C19-jun, 15 U/ml heparin, 4 days
  neurite outgrowth / PC12 cell differentiation: induces PC12 cell differentiation as well or better than bFGF
Swiss 3T3 fibroblasts
  heparin dependence of mitogenic activity: required for optimal mitogenic activity
[5]
  heparin binding: quantitatively and specifically bound to heparin agarose beads
Control L6 cells
  c-fos mRNA expression in control L6 cells: neither was active
FGFR1c ECD
  binding to immobilized FGFR ECD: high affinity and specificity
Human endothelial cells
  proliferation of human endothelial cells: stimulated the proliferation
